# Source: patent publication US20030207791A1, “Materials and methods relating to the treatment of leukaemias” (priority 2000, published 2003)
# Columns and labels:
# [1] = target: nuclear corepressor (NCoR) (UniProt O75376); assay: cell-based or functional assay
# [2] = target: PML-RAR (UniProt P29590); assay: cell-based or functional assay
# PML-RAR (UniProt P29590), sequence (P29590 other isoform, or with tags, fused parts or gaps limits assumed): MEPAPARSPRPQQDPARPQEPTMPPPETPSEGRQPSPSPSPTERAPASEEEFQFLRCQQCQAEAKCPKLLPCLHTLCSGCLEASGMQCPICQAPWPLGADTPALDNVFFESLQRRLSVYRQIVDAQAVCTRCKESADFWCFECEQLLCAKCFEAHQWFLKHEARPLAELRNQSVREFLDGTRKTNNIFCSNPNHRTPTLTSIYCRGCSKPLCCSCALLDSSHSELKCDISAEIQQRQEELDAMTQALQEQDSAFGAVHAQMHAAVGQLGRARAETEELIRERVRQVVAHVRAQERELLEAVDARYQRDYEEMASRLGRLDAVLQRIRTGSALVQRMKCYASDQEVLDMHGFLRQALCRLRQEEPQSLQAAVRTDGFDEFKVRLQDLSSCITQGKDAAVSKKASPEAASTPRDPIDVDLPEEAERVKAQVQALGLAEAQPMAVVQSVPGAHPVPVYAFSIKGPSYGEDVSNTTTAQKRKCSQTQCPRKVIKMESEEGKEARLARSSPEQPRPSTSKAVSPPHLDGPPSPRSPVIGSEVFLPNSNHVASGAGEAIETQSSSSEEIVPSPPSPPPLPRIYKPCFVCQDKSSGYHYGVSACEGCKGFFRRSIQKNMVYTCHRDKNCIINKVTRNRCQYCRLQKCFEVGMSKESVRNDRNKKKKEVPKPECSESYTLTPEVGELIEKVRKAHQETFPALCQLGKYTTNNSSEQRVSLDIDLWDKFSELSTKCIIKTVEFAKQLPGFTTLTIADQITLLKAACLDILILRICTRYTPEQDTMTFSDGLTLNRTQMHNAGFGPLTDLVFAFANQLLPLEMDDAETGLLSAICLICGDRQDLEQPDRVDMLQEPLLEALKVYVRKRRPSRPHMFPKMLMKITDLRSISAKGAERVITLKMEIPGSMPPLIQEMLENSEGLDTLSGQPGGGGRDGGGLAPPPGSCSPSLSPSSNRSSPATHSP
# nuclear corepressor (NCoR), sequence (O75376 whole entry): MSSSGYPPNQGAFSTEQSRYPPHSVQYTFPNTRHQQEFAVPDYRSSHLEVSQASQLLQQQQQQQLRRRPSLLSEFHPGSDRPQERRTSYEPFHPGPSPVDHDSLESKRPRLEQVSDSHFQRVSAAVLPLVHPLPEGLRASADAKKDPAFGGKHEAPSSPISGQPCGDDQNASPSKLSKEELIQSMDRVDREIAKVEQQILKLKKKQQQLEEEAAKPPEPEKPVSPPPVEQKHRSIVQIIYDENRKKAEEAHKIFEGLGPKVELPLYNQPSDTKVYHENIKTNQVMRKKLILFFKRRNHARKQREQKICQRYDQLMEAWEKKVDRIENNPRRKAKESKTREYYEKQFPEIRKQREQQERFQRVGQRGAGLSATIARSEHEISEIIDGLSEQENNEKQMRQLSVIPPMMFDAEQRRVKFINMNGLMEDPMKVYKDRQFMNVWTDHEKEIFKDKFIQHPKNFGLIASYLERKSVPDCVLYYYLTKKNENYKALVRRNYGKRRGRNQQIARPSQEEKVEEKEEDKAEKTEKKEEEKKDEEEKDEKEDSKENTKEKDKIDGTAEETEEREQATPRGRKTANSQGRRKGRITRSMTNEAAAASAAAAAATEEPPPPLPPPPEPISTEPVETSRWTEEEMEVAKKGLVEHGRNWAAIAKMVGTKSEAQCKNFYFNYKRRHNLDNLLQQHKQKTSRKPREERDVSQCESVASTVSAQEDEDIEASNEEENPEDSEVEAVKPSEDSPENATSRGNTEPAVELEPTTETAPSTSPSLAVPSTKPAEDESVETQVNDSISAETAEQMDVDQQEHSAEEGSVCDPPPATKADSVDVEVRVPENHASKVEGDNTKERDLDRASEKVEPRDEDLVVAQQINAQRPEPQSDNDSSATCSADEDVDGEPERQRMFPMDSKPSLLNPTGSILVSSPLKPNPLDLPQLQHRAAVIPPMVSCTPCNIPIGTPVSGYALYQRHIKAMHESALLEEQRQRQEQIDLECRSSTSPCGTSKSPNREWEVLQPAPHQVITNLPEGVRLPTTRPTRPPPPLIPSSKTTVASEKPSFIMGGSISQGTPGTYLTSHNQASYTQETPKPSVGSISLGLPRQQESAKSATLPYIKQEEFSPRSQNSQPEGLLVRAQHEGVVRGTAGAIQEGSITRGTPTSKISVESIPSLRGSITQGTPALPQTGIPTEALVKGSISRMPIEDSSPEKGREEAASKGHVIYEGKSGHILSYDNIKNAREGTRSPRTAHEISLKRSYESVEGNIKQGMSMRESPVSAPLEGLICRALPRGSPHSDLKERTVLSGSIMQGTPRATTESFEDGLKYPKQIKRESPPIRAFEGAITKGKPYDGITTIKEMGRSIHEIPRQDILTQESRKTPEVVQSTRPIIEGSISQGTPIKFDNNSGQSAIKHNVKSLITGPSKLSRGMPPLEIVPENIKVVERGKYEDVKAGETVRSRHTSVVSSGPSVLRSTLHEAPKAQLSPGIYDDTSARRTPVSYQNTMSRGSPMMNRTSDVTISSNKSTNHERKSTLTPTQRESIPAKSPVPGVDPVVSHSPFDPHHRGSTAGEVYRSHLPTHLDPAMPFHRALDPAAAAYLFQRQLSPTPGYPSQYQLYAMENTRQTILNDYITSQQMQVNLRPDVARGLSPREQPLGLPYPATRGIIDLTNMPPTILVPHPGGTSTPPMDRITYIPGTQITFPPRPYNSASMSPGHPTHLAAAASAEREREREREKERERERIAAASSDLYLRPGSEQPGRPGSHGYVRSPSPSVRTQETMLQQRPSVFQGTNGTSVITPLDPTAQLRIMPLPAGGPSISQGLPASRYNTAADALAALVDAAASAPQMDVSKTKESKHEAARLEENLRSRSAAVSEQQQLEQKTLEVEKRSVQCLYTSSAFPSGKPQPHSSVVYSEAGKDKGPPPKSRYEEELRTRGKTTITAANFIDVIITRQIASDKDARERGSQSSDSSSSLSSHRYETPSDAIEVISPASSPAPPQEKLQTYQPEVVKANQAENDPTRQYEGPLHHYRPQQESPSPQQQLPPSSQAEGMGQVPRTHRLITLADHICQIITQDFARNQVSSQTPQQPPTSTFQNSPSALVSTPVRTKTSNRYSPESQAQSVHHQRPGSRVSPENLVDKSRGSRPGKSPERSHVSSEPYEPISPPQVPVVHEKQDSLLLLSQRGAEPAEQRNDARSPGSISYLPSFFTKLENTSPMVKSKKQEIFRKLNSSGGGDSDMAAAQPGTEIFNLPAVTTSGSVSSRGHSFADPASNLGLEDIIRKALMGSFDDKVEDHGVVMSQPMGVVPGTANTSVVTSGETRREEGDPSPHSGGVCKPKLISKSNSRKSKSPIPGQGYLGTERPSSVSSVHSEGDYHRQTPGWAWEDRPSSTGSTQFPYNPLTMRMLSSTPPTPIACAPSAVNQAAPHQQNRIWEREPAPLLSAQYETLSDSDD
# PML-RAR (from UniProt P29590 1-552; P10276 61-462), sequence (P29590 other isoform, or with tags, fused parts or gaps limits assumed): as the sequence (P29590 other isoform, or with tags, fused parts or gaps limits assumed) above
"transcriptional repression of GAL4-VP16 activation of the RARE-G5-TATA reporter in HeLa cells, 50 ng expression vector [1] [%]","percentage of differentiated, CD14+ U937 cells after vitamin D and TGFβ, PML-RAR induced (% CD14+ cells) [2]",Substance
30 to 40,,PML-RAR (from UniProt P29590 1-552; P10276 61-462)
,70,coiled coil of PML (RBCC) (from UniProt P29590 1-360)
